Source: the DeepSol protein solubility set

assay: soluble on expression in E. coli; label from the status in PepcDB or PDB records

Row | Sequence | soluble on expression in E. coli
1 | MGSDKIHHHHHHMNEIVKLISKHNDVRTGAINLIVSENRMSPAALAALSSDLASRYAAPFYAGTDISQEIVAITEQKAKKLFNAEYVNISPISGSASLMAVVFALTSPGDKVGRVPPFFPGGGYPFNYEVFDRVSLPLPFDDEEWQLDLEATLELLEREKPKLVILGASIFTVPMPVREVADLVHSYGGIVAYDGSHSLGLIVGKQYQDPLNEGADILFGSTHKTFPGPQGGIIVTNSKELNDRIDIVSNFTPLNGPTMICNPHLARIASLGIVIDEVPWERYAEQVVKNSRAFANTLQAKGYEMRGQSTKKFSELSYCHQVLPKLDRQMGQGYRDKLKQHNIHVDGFMRVGTAEITRLGYVEADCTRISEIMAEIVSSNQDVIPSLRHEVVEMNANHQHIVM | not soluble
2 | MAHHHHHHNQQNKKVEGGYECKYCTFQTPDLNMFTFHVDSEHPNVVLNSSYVCVECNFLTKRYDALSEHNLKYHPGEENFKLTMVKRNNQTIFEQTINDLTF | soluble
3 | MAHHHHHHMTTLPVLHLKATSLQNVTIAADLSDTTATLYTFLRSTPSAAETELALQPFLESLHAAPSSGRAALMRRPNHHLVQLLESVAVDGVFRCTPHVLPALARHSDRWLHRLGYASMDGEAANLTAVMDSSAHAASGSQRSASPPTAAPFPIMRVRATDMHQYVDPYSAYEADYLGRQEAARSSYVDASASGEARLPTNGSAAESGGLQHRDTTHPHEEASSVSAEVSALTAPGDEPQLSEPAPSASHAVTPAPTAALTSAPAIHPVLHLIANQVLQQQEEGEKTGRENAEERAHPSSSHAVLDEKLHRLMAQLNEAETQLTAAMAEKEATEQVWLPYYSRLKTSRVYVNELKSRLQSAASLYLLQRYERETLQQAHIGVAMESISLQLVLRDVRARLEDEQRSSLTDGHHQATESDRLAQQLSAVLGVPAAASQRNAACDRTN | not soluble
4 | MGSDKIHHHHHHMVQISETSSELIQLLRIENSAPEVLQILDHADSRYIRDLKVNVSNALVTAHISEKESALLALSIAANQKNNILISGFQKLSAEKGATIEEQNEAISCASLLAGNNVFYRFRHFQQKESYNTMQAKIKMNIMMKPVLGKEFFELISLAVSAVNGCEMCVNAHEHSVREMGATEERVWDAIRLAAVITSLDKVMS | not soluble
5 | MPITNASPENILRYLHAAGTGTKEAMKSATSPRGILEWFVNFFTCGGVRRSNERWFREVIGKLTTSLLYVNKNAFFDGNKIFLEDVNGCTICLSCGAASENTDPMVIIEVNKNGKTVTDKVDSERFWNVCRMLKLMSKHNIQQPDSLITEDGFLNLRGVNLAHKDFQGEDLSKIDASNADFRETTLSNVNLVGANLCCANLHAVNLMGSNMTKANLTHADLTCANMSGVNLTAAILFGSDLTDTKLNGAKLDKIALTLAKALTGADLTGSQHTPTPLPDYNDRTLFPHPIF | not soluble
6 | MNENQLSKRLATVGDLIPRGSRLADIGSDHAYLPVALMLENKLSFAVAGEVVEGPYQSAKTQVSKSNLTDKIIVRLANGLDAIEPEDQIDVISICGMGGTLIRDILEAGRKKNRLTGKERLVLQPNIGEPTLRRWLMANDYSIIDETIVEENRKLYEIIVAEKTEQSVSYTDQELLFGPVLIKKQGPVFTKKWQRELKQRKTVLAQLAKASGEHIEKQAKLQQDQQLIEEVLANGCER | not soluble
7 | MQNSLLTQHIAQIIAAEISSQPTQARAAIALLDEGASVPFIARYRKEATGGLDDTQLRILETRLTYLRELEERRSTILTSITEQGKLNDLLHAEILAADTKSRLEDLYLPYKPKRRTRAQIAREAGLEPLADSLLADPTLIPETVAANFVDPEKGITDIKTALEGARAILIERWGEDAALIGELRQWLANNGVIHARLIDNKEDTGAKYRDYFNHTELLSKIPSHRLLALFRARSEEILHLDLDPGNDADAGHQYCESMVMQAACVADQGRPADTWLMTACRLTWRAKLHMHLMLDLFNQAREKAEAEAITVFSNNLKDLLLAAPAGPRIVLGIDPGIRTGCKIAIVDTTGKLIATETIYPHEPRREWDKSLHTLKTLCTQHHITLIAIGNGTASRETDKLVSDLIKAHPALELQKIVVSESGASVYSASESAAKEFPDLDVSLRGAVSIARRLQDPLAELVKIDPKAIGVGQYQHDVDQFHLAKALDARVEDCVNAVGVYVNTASAALLSRVSGLSASVAENITRYRDEHGSFKQRQDLLKVPRLGAKTFEQCAGFLRIADGNQPLDASAVHPEAYPVVERIVQTTGKPIKALIGDSHTLRMLKPEQFTDTNFGIPTIRDIIKELEKPGRDPRPEFKAVRFTEGVENIKDLKPGMILEGVVSNVAAFGAFVDIGVHQDGLIHISALADRFVKDPRDIVKAGDIVKVKVLEIDVPRKRIALTCRLHEETPPETPVANRTGNERGRPNPVAKKVKATPTDNALAQAFARARLK | soluble
8 | AIASARVRSRSRGRGDGQEAPDVVAFVAPGESQQEEPPTDNQDIEPGQEREGTPPIEERKVEGDCQEMDLEKTRSERGDGSDVKEKTPPNPKHAKTKEAGDGQP | soluble
9 | MYRISQLAELVGLSRTTLLYYEKLGLIKGERLNNGYRQYSEKDAQRLVLLQNLQAGGLTLKECQACLDAKVNREVLVERLEQLDQEIEQKQNSRQLLAALLGESSLTDWHESLDQLAPEAHIEWLMKQGFDEKQAMRLKWLSKDMNEHERYMQDFDLIFKELERWGPGSESDTLKALQKVPNKSMTLLEIGCGQGIATELFARHTDAMITAVDNEEFALKHLMEKMQQNGLEDKITTVCADMAKMPFETKSFDLIWSEGSAYIMGVQNALKAWKPLLSEDGVLVVSDLVWSTDKPSEGALSFWKKEYPDMVSVSERIKHAQQAGYEVIEHFSLSDAAWEAYYHPLIERLDTLKDKLIDSPVLIDFENEITAFKQRANEFDYEIFILRSR | not soluble
10 | MGSDKIHHHHHHMLMDSLQEIICEKRTYTRLYHSHKHAYSQFLFPLEGSIDLETEGRQVKLNPDHFLYIPPQCEHRFRSIGRNECLVLDVPLHAMKIDEYRAGSGIEAALDPFWSSIRYLLTEEAKAGTANSLHMLVQYIKEKLQSHSYASIAYIHSHLFERLTIKKLAEIEHYHPAYYSSWFKKQTGKSPQNYIADLRLEEAKRMLMERNETLTVVSEALGFQNLSSFTRWFTKSTGMPPRLYRNTLYSDKK | not soluble
11 | MGSDKIHHHHHHMAFWQSKTLTEMTSQEWESLCDGCGKCCLNKLIDDETEELYYTNAACLLLDHQTTSCQHYSDRFRYVPQCTVITAQNVHELTWLPDSCAYRRLAAGRALPSWHPLLTGSKDAMHLAGMSIQGKVVDERRVKDIEDHIVLWPLKDLD | not soluble
12 | MGSDKIHHHHHHMGMDFKVPDYMQELALASGQGLDQLSAVLARILDHPVLISSSAYKLFSSSSHYDFESFHIYSNQPRTGSDALFTCHILTDTMQSLALGRVVAPFGRTLGYIFMLTDDDSPDPTHFKPLLDYAASLCAVHLQNRLELKQEQSKFKNAFLYDLIYGNLKRNDEIIATGELWGWNFRRPHTIMVFLLPEPDFYTTEWHLMDVLSRIVEQNFIEIYYKNPAVILRQNELILFVPMQTDKPAVQTEELLVFADKILSQVQNTELKGLAACGVGQAYSEATVLFRSYQEAKVALEMGKLLGIPIPFFRDLGLERILYKHDLQDLKEYYLHVLGELHKQDDQDSSLVTILESFAENQFDVGKTAKALFMHPNTLRYRLNKIENILGKPLTDNHARLDIMAAFKIKRLHTIETLLA | not soluble
13 | MSLTVSFVHLRLHTEFSLVDGLVRVKPLAKAVAGLGMPAVAVTDQSNMCSLVKFYKTAMGAGIKPICGADIWLASREEDGPLSRLSLLAMNAKGYRNLTELISRGWSEGQRNGEIIIERDWVKEAAEGLIALSAAKEGEIGHALLDGEEAKAEALLREWMEVFPERFYVEVQRTSRVNDEEHLHAAVALASRCNAPLVATNDVRFIKQEDFEAHETRVCIGEGRTLDDPRRPRTYSDQQYLKSPAEMAELFSDLPEALENTVEIAKRCNIEVQLGKYFLPDFPTPNGMGIDDYLRHASFEGLEERLEVLLPKDTPDYEAKRQVYVDRLNFELDIIIQMGFPGYFLIVMDFIKWAKNNGVPVGPGRGSGAGSLVAYVLKITDLDPLAYDLLFERFLNPERISMPDFDVDFCMEGRDRVIDYVADAYGRNAVSQIITFGTMAAKAVVRDVARVQGKSYGLADRLSKMIPFEVGMTLDKAYEQEEMLRDFLKSDEEAAEIWEMALKLEGITRGTGKHAGGVVIAPTKLTDFSPIACDEEGGGLVTQFDKDDVEAAGLVKFDFLGLRTLTIIKWAMEIINREQAKKGLEPVNIDFIPLDDKPTYSLLQKAETTAVFQLESRGMKELIKKLKPDCLEDLIALVALFRPGPLQSGMVDDFINRKHGRAELSYPHPDYQYAGLEPVLKPTYGIILYQEQVMQIAQVMAGYTLGGADMLRRAMGKKKPEEMAKQRGGFIEGCKNNGEGHHHHHH | not soluble
14 | MWHSIEQAISVETGKSFYISEKKEISTRPASSSSFTCSYDNKEPPPNLSFKITDGHRSYFLKINNKDYLENFQAEAYSLKQLNSLANIASPNVTAIGTSLDKSFLVLDYIDFSKAKPMLWYQLGQQLAQMHYENRHGQFGWQHDNFIGSTIQPNHWSSNWTTFFSDQRIAWQLQLLSERSIMLGNIEHITQVCHDALLHHQVSPCLVHGDLWQGNTGFSGEKAMIFDPACYYGDREVDIAMTELFGHFPDDFYHGYQAEYPLDDGYEQRKLVYNFYHILNHANIFGGIYIDQAKATLSRIMSLPLHLEHHHHHH | not soluble
15 | MGSDKIHHHHHHMSKVSLTIPPDFILGAAASAWQTEGWSGKKAGQDSYLDLWYKQDRQVWHNGYGPAKATDFFNRYREDVALMKLAGLTHYRTSINWSRFMLDYEKGIVDEEYAAYIDNLLDEMHRQGIEPMICLEHYELPACLLEKYQGWSSKQVVEWFVLYADTVFARYAGKVKRWFTFNEPIVVQTRVYLDALRYPYEQNTHTWMQWNHHKNLATAKVVQRFRQKGYDREGGSIGVILNPEVTYPRSRAAHDVKAAHLYDLFYNRVFLDPALKGEYPAELIALLAQHQVKWDYTEEELAIIRDNTVDEVGINLYYPHRVKAPSREWNKETPFHPAYYYEHFELPGRRMNTSRGWEINPKIIYDMAKRIEREYDNVPWFVAENGIGIENEARFKDDAGVIQDDYRIAFIAEHLYWTLKAKEEGANCRGYMLWAFTDNVSPMNAFKNRYGLIEIDLEQDRQRRPKKSAAWFRQLHDTRQLELTLDDEEK | not soluble
16 | TRTLRGVMRVGLVAKCLLLKGDLDLELVLLCKEKPTTALLDKVADNLAIQLAAVTEDKYEILQSVDDAAIVIKNTKEPPLSLTIHLTSPVVREEMEKVLAGETLSVNDPPDVLDRQKCLAALASLRHAKWFQARANGLKSCVIVIRVLRDLCTRVPTWGPLRGWPLELLCEKSIGTANRPMGAGEALRRVLECLASGIVMPDGSGIYDPCEKEATDAIGHLDRQQREDITQSAQHALRLAAFGQLHKVLGMD | not soluble
17 | MTVWSKLLSALRGGANEVGEAIVDSQALRILDQEIRDADVELRKSREALASIMARHRLAQERVEKGAAQVAEYEQYAIKALEAGNEELAREVAEKIATLENQLEGERAQVAEFAASVAQLRKSVSQAEGNIRQLKQQVDTVKATESVQKAQMAVAQRYGNSKSKLQTAVDSLERIKQRQAERAATMDAAAELASAAAPDDALDAKLRAAGIKASGNSVDGVLARLKEKGKAAAALEHHHHHH | not soluble
18 | MAHHHHHHMHVKHRATGRVVATLPFEPMPTLEDVSDAFIKAESTTATTHTGDLTVPTAYDNAEEDVDGAEEGETMYAVVYDLVTPTAPGDNGDSELAAAVTAAGLLENLPADADGTCNIGETMRKLVELGAAELLTAEPLSVSQARREYNPPEAPGLLRRIVYPASQYSPYRLDRDPLHTDKLSFYRSSTVTASVPSGPPPTSCTGLHALPVWDYGEGGLYTSYFDSYDLSCPMRGPFVRPSAAGKAALVMPLSDEEHHRIFGA | soluble
